Values quoted from earlier work, collected in PMC9315744.

Columns and labels:
Assay in all cases: MST
[1] = biological target: MHV spike glycoprotein ECD (Murine hepatitis virus) (UniProt P11224)
[2] = biological target: Nsp7/Nsp8 complex (SARS-CoV-2) (UniProt P0DTD1)
[3] = biological target: Nsp8 (SARS-CoV-2) (UniProt P0DTD1)

Sequence of CEACAM1a (P31809 35-428): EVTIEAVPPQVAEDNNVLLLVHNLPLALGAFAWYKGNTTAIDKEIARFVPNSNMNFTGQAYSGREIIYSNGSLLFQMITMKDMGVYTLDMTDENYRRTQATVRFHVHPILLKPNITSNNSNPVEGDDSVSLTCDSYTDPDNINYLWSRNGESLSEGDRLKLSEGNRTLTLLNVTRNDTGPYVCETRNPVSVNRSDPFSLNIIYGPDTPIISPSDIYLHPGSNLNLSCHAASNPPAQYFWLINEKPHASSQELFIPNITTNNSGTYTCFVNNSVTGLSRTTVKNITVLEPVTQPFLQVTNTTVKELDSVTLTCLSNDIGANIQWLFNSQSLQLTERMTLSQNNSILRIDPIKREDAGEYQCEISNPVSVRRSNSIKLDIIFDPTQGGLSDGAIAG
Sequence of MHV spike glycoprotein ECD (Murine hepatitis virus) (P11224 15-1231): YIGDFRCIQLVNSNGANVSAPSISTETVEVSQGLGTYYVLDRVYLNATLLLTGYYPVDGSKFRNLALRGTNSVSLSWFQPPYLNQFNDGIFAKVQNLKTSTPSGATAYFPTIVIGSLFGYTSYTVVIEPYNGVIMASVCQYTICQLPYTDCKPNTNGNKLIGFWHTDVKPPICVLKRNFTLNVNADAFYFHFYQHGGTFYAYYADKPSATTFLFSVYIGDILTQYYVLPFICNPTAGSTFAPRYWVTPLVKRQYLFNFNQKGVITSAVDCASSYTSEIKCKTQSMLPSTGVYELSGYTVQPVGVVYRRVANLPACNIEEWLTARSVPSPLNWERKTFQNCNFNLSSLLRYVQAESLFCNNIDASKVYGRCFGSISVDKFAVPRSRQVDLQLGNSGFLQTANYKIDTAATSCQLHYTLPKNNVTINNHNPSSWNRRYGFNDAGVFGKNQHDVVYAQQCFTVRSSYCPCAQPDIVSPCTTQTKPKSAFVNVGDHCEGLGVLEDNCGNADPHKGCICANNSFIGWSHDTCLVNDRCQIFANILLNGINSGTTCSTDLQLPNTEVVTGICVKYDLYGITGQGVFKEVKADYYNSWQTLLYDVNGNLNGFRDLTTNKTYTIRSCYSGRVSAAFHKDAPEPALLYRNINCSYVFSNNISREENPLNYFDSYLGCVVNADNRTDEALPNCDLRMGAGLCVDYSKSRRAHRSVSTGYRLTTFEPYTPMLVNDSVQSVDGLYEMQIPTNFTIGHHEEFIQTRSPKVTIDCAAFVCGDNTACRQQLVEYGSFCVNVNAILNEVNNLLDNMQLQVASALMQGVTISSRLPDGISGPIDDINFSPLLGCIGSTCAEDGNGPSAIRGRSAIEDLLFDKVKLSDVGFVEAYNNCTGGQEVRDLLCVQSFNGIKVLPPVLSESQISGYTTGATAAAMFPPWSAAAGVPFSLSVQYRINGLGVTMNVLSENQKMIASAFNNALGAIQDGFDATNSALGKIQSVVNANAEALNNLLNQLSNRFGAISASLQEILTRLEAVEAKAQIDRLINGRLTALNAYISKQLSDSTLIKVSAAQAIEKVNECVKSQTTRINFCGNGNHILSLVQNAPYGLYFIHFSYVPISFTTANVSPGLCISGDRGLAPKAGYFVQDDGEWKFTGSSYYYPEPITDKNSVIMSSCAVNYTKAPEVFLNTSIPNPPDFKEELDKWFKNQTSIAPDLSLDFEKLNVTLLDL

CEACAM1a (from UniProt P31809)
Kd [1]: 0.0485 µM

Nsp15 (from UniProt P0DTD1)
Kd [2]: 6.48 µM
Kd [3]: 16.3 µM
